# Assay results published in patent US20140141002A1 (UNIVERSITY OF NORTH CAROLINA AT CHAPEL HILL, published 2014).
# B1: anti IAP monoclonal antibody B6H12 (antibody, from another filing)
# scFv: EVQLVESGGDLVKPGGSLKLSCAASGFTFSGYGMSWVRQTPDKRLEWVATITSGGTYTYYPDSVKGRFTISRDNAKNTLYLQIDSLKSEDTAIYFCARSLAGNAMDYWGQGTSVTVSSGGGGSGGGGSGGGGSDIVMTQSPATLSVTPGDRVSLSCRASQTISDYLHWYQQKSHESPRLLIKFASQSISGIPSRFSGSGSGSDFTLSINSVEPEDVGVYYCQNGHGFPRTFGGGTKLEIKEQKLISEEDL
# B2: integrin associated protein (IAP), endogenous in porcine aortic smooth muscle cells (receptor, UniProt Q9GKE8 19-303, looked up)
# chain: QLIFNITKSVEFTVCNTTVTIPCFVNNMEAKNISELYVKWKFKGKDIFIFDGAQHISKPSEAFPSSKISPSELLHGIASLKMDKRDAVIGNYTCEVTELSREGETIIELKRRFVSWFSPNENILIVIFPILAILLFWGQFGILTLKYKSSYTKEKTIFLLVAGLMLTIIVIVGAILFIPGEYSTKNACGLGLIVIPTAILILLQYCVFMMALGMSSFTIAILILQVLGHVLSVVGLSLCVSECTPVHGPLLISGLGIIALAELLGLVYMKCVASDHKTIQPPRNN
# Legend:
# [1] = molecular target: Src homology 2 domain containing protein tyrosine phosphatase substrate 1 (SHPS-1), endogenous in porcine aortic smooth muscle cells (porcine) (UniProt F1S887); experiment: SHPS-1 immunoprecipitated from transfected pSMCs, immunoblot for FLAG, densitometry
# [2] = molecular target: T1, integrin associated protein (IAP), endogenous in porcine aortic smooth muscle cells (porcine) (UniProt Q9GKE8); experiment: pSMCs incubated 2 h with B6H12 (4 ug/ml); SHPS-1 immunoprecipitated, immunoblot for IAP, densitometry
# T1 sequence (looked up): B2 chain
# [3] = molecular target: T2, Src homology 2 domain containing protein tyrosine phosphatase substrate 1 (SHPS-1), endogenous in porcine … (porcine, UniProt F1S887 31-509); experiment: cell-based or functional assay
# T2 sequence: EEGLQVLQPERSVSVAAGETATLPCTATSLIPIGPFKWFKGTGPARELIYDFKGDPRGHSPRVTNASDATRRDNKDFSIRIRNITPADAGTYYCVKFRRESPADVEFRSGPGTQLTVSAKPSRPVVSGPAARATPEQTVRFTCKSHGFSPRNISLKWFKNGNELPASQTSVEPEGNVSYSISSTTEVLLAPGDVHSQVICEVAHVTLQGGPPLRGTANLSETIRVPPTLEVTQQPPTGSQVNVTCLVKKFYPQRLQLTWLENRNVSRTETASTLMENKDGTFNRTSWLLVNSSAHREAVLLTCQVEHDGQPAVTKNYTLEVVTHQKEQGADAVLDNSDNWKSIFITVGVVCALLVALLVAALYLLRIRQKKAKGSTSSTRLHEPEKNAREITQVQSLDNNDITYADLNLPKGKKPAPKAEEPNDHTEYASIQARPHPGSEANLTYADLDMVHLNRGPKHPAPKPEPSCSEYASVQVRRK
molecule,measurement,setting,value
IAP with truncation of extracellular domain at residue 135 and containing a C-terminal FLAG epitope (IAPcyto) (from UniProt Q9GKE8 135-303) (receptor),% reduction in IAP association with SHPS-1 compared with cells expressing IAP fl,[1],88%
B1,% reduction of the interaction between IAP and SHPS-1,[2],75%
B2,"IGF-1 stimulated cell proliferation, cells incubated with B6H12",[3],1.03 fold
same,"IGF-1 stimulated increase in SHPS-1 phosphorylation, cells pretreated with B6H12",[3],0.93 fold
same,"fold increase in SHPS-1 phosphorylation in response to IGF-1, control cells (no antibody)",[3],4.1 fold
same,"fold increase in cell proliferation with IGF-1, no antibody",[3],2.2 fold
